Test results published in the DeepSol protein solubility set.

Assay: soluble on expression in E. coli; label from the status in PepcDB or PDB records
For “MSLYNFLGKELKSPLIIGSGPLTYSAAGCKILSDAGAGAVVTKTIRKERAINPAPHMVRNTANALLNNEKWTDFEPEQWIDFEIPQMKRDGTVCIASIGHTIEESSELVEKVANAGADFIELVSYDYRDLIPMLKDAKERVNIPVIVKLPPMIDEIGDFAKKLEEAGADAITACDSVGPAFRIDIETGQPLLGGNGIGYLSGETIKPITLQRIYEIKKQVNIPIIGLGGCVSGDDALEMIMAGADFVGICSVVILKGAQVISKIHDDLKSNLNRLGYNTIENACGIVHNHMGDVNEREGHHHHHH”, the “soluble on expression in E. coli” value was “soluble”.
For “MSLQNGKIKGLIFDCYKTLIDIRTDEGSWETNEKVSKWLLYQGVRIEPDRLREEYKWKVIGRLGNSGQKYPDIRIEEIFAEICAENAFREINPFWLGIEAAKVFRTSSLKKLEAYPQSLRLLDKYRNVPKCIVSNAQRVFTEQELHFLGLYDRFNFIIMSSDHRIKKPDTRLFKMALDGLKLEPWEVLSIGDTPENDIYAPQSLGINAMHIRDAWRCVEGHHHHHH”, the “soluble on expression in E. coli” value was “soluble”.
For “MGSDKIHHHHHHIANVETSSRNAIGFNVLSNAAETRATPTTNTNLKNTDFDVFAFTADGTAFMGKNDTEFEHDGVKIVYKNGKWDYDNASDLRYWPTEALDFYAFNPGTVSEDMMAFYSWEATKDVQKISYTCMDEYGSGTTHANYDVMYAMAKGQTKDMNNGIVKFNFKHILSQVVFKAKTQYDNMQVDIDVIKIHNFKFAGAFTLPAAADGTGSWSSSDLAFPHAFTVVKNANITVNSNTEATDITTNTPMLNIPQELTAWKVSETATKSKLEADNAKQCYLEIACKIRQSGAYLLGSASEYKTIYVPFGDTWEQGKRHIYTLIFGGGYDDQGEAVLNPIQFDAETTGWVDADKDVNVQP”, the “soluble on expression in E. coli” value was “not soluble”.
With “MTDCEFGYIYRLAQDYLQCVLQIPQPGSGPSKTSRVLQNVAFSVQKEVEKNLKSCLDNVNVVSVDTARTLFNQVMEKEFEDGIINWGRIVTIFAFEGILIKKLLRQQIAPDVDTYKEISYFVAEFIMNNTGEWIRQNGGWENGFVKKFEPKSGWMTFLEVTGKICEMLSLLKQYC” the “soluble on expression in E. coli” value was “soluble”.
For “MGLCISKHSGSSYSYSDRDHWEVPVNPSNVRAVSSHQTASASDRASDKVDERPATFSHFQLARCGEDYTLSMVSLAAYQAERRHRGNLIKDRSQSALPWVQVYHSETGLNYSFQIDRTTTVKVAGFNYNVPNDGKTRHLYSAGTSQVNMPVIADNMSACIAVACAAENVDAGTG”, the “soluble on expression in E. coli” value was “not soluble”.
In the case of “MDLEPIFLTPVFQERIWGGTKLAERFGYDIPSSQTGECWAVSAHPHGQTVVARGPFAGMTLGQLWEERRDLFGHFPSDRFPLLTKILDANADLSVQVHPDDEYAKTHEGGELGKTECWYIIDCKPGAKLIYGHYAETKGELRAMMEAGEWDRLLRKVPIRPGDFFYVPSGTIHALCEGTLVLETQQSSDTTYRVYDYDRVDSQGRKRELHLEKAIDVTTVPHRDIDVHPHVAEFPGATVTTFVEGDYFGVQKWDVHDAFASEQTKPFLIVSILKGEGELVHHERIYAIRQGDHFILPHQFGRFTIRGMLEAIASWPRAGK”, the “soluble on expression in E. coli” value is reported as “not soluble”.
With “SHEELNDQLRVRREKLKKIEELGVDPFGKRFERTHKAEELFELYGDLSKEELEEQQIEVAVAGRIMTKRGMGKAGFAHIQDVTGQIQIYVRQDDVGEQQYELFKISDLGDIVGVRGTMFKTKVGELSIKVSSYEFLTKALRPLPEKYHGLKDIEQRYRQRYLDLIMNPESKKTFITRSLIIQSMRRYLDSHGYLEVETPMMHAVAGGAAARPFITHHNALDMTLYMRIAIELHLKRLIVGGLEKVYEIGRVFRNEGISTRHNPEFTMLELYEAYADFRDIMKLTENLIAHIATEVLGTTKIQYGEHLVDLTPEWRRLHMVDAIKEYVGVDFWRQMSDEEARELAKEHGVEVAPHMTFGHIVNEFFEQKVEDKLIQPTFIYGHPVEISPLAKKNPDDPRFTDRFELFIVGREHANAFTELNDPIDQRQRFEEQLKEREQGNDEAHEMDEDFLEALEYGMPPTGGLGIGVDRLVMLLTNSPSIRDVLLFPQMRHK” the “soluble on expression in E. coli” value was “soluble”.
For “MKRLIVGISGASGAIYGVRLLQVLRDVTDIETHLVMSQAARQTLSLETDFSLREVQALADVTHDARDIAASISSGSFQTLGMVILPCSIKTLSGIVHSYTDGLLTRAADVVLKERRPLVLCVRETPLHLGHLRLMTQAAEIGAVIMPPVPAFYHRPQSLDDVINQTVNRVLDQFAITLPEDLFARWQGA”, the “soluble on expression in E. coli” value was “not soluble”.
In the case of “MELLCPAGNLPALKAAIENGADAVYIGLKDDTNARHFAGLNFTEKKLQEAVSFVHQHRRKLHIAINTFAHPDGYARWQRAVDMAAQLGADALILADLAMLEYAAERYPHIERHVSVQASATNEEAINFYHRHFDVARVVLPRVLSIHQVKQLARVTPVPLEVFAFGSLCIMSEGRCYLSSYLTGESPNTIGACSPARFVRWQQTPQGLESRLNEVLIDRYQDGENAGYPTLCKGRYLVDGERYHALEEPTSLNTLELLPELMAANIASVKIEGRQRSPAYVSQVAKVWRQAIDRCKADPQNFVPQSAWMETLGSMSEGTQTTLGAYHRKWQ”, the “soluble on expression in E. coli” value is reported as “soluble”.
In the case of “MQEIIFIDGGSLPTPEGFTREWVKAAAESRTEDQKLFSLVSDAFQRKIDAGVHVPTYPQFRDMIGQFLDIIRDEKNCYEPYVLKEENAKILELEIIDEVAKQYRERTGKTLEVRVCVAGPTDLYLQAFGATAFSDAYHIMALNIENFIKQAFKAAKNFKIKVIALDEPSLGMNDKIQFSDLDIVSALTLASTYARKQGADVEIHLHSPLKYKLICETPINVMGFEYAATPSYIDLMDKKILEDSNTYIRLGVSRTDISSLIGMVNETYGVNAWKEKEYMQKIVTELETPDIIQKRLEKACSILGDRIKYASPDCGLAFWPDQELAFRLLENTAKGINAFNAEMKDLLEHHHHHH”, the “soluble on expression in E. coli” value is reported as “not soluble”.
For “MYIGGTGVEGYHHLFKEILDNAVDEALAGYATEILVRLNEDGSLTVEDNGRGIPVDLMPEEGKPAVEVIYTTLHSGGKFEQGAYKVSGGLHGVGASVVNALSEWTVVEVFREGKHHRIAFSRGEVTEPLRVVGEAPRGKTGTRVTFKPDPEIFGNLRFDPSKIRARLREVAYLVAGLKLVFQDRQHGKEEVFLDKGGVASFAKALAEGEDLLYEKPFLIRGTHGEVEVEVGFLHTQGYNAEILTYANMIPTRDGGTHLTAFKSAYSRALNQYAKKAGLNKEKGPQPTGDDLLEGLYAVVSVKLPNPQFEGQTKGKLLNPEAGTAVGQVVYERLLEILEENPRIAKAVYEKALRAAQAREAARKARELVRRQNPLESDELPGKLADCQTENPEEAELFIVEGDSAGGSAKQGRDRRFQAILPLRGKILNVEKAGLSKALKNAEVRAMVSAIGVGIGGDGEAHFDLEGLRYHKIIIMTDADVDGSHIRTLLLTFFYRYMRPLIERGHVYIAQPPLYRLQVGKKVEYLYSDEELQARLKELEGKHYEVQRFKGLGEMNPEQLWETTMNPEKRVLKRVELQDALEASELFEKLMGQEVAPRREFIEEHARYAELDI”, the “soluble on expression in E. coli” value was “soluble”.
In the case of “MGSDKIHHHHHHMCEISVVMPVYNAEMHIKDAIESVLEQSFVDFEFILIDDGSTDHTSSIIQSYNDKRVRLIQNSHNFIESLNLGIENSLGKYMARMDGDDIMHIDRLKIQYAIMQEYPDVTVCGTWMNSIGTYSQTNGLLSTLSGWVEQPLLKFTKGNFLFHPTTMIRMDFLKKNALKYENYPYAEDFKFWVEIAKSGGRFYIDSQPLLYYRISDSQVSSQKSSEQRATTESIINEVLEYLMELNKNEYPELAAAYGDLCKLYEKQLLTKCEVLTLFQTLFSKNEKKLNL”, the “soluble on expression in E. coli” value is reported as “not soluble”.
In the case of “LRSRRKPSSRIGRRPSTTQDRISTVGIELFTEQGFDATSVDEVAEASGIARRTLFRYFPSKNAIPWGDFDAHLAEMRAQLAAQPDDIPIVDGLTAALLQFNAFPASEEINHRKRMGLILRVPALQAYSVVMYEGWRNVIAEYVASRLGTSPTDHVPRTVGYLLLGVAMSAYEQWLDDDSLELNELLASGMQSLYDGLSSLGEPDTRT”, the “soluble on expression in E. coli” value is reported as “soluble”.
With “MAHHHHHHMTMFGKIHVYKRTYEICSIILKNYFVYYHPLYLDFYLSFAWYNKGSNNEKAFLHFLREFILLQINVCSKRCREKKMEILKMNENFEHLVFSIIFKNNKEEEDNKNKYDINENVNIRRLDNYVSSSFLNDICYPHCNIYNENKNFDILKNFDFLKSNILLASSLHYFINSLFCYYNNDDFINKYKSTDFIFDSILLCIKSLESVKRTYRLSTYTEKGFGNVCLDISLMIIKLKLKHPKFLEKKDNWMLYALRNAMEAEEVTEKK” the “soluble on expression in E. coli” value was “not soluble”.
For “MGSDKIHHHHHHMSRILITCAITGSIHTPSMSPYLPVTADEITQQAVDAADAGAAILHLHARDPETGRPSAEIGHFMGFLPRIKQSCEAVLNLSTGGSAVMTLDQRLAAPKQAAPEMCSLNMGTMNFALYPAADRISDWKHDWEEPFLRGSDDLVFKNTPRDMALILGEMGTKRGARFEFEVYDVGHLYMLRHFVDRGLVQGPLFIQFVFGVLGGIGPDPENLMHMKTVADKLFGQDYLFSVLAAGRHQIPLVTMAAAMGGHVRVGLEDSLMISRGVLARSNAEQVRKIRRIVEDLGREVASPGEARAMLGLKGADRTAF”, the “soluble on expression in E. coli” value was “not soluble”.
In the case of “MSLTANREAIDMARVAAGAAAAKLADDVVVIDVSGQLVITDCFVIASGSNERQVNAIVDEVEEKMRQAGYRPARREGAREGRWTLLDYRDIVVHIQHQDDRNFYALDRLWGDCPVVPVDLSANSAGAQEGHHHHHH”, the “soluble on expression in E. coli” value is reported as “soluble”.
In the case of “MGSDKIHHHHHHMQKLVEQVWDYTKHAKFYSYRPNYAPKTIDMLISLVGKKDIKVADIGAGTGNLSIMLLERGCKVVSVEPNDAMREIGIERTKDQKIDWVRATGLNSTLQNSEFDWVTFGSSFNVMDRNEALEEAHRLLKSEGYFSCMWNHRDLNDPVQKIAEDTIVEFVPNYTRGTRREDQRPIIESRKDLFDNIVYIEEDFYFHQSIENYINAWKSVKNPYWDLETDEGNELFNKISNKISQRLPKEFSIKYTTRCWSAKKI”, the “soluble on expression in E. coli” value is reported as “not soluble”.
With “MGSDKIHHHHHHMLYVTGITGHSGQWFVKRLISEGYKGRIRCIVLPESDTDFLNKSGLDIDIVSGNLNDQEFLTSTMVGCSTVLHIASIDFSRNVVKAALDNNLDWAILVHTTGRYSKYKSASAEYIEIEEYVLKFRNRMGITVLRPTMIYGSSRDRNMYKLITFLHKIKFFPMFGEGENLMQPVHARDLGNAYYDVIVNRSTTFNKGYNLPGKRPLTYMELVRTVSDTLGRKNVIIKIPLWFSILAARVYNALDKNAIISVEQVLRMQEDKAFDYEDAVRDFSYSPVSFEDGIVEEVNEYLARYNSSRTKQR” the “soluble on expression in E. coli” value was “not soluble”.
With “HGTELPSPPSVWFEAEFFHHILHWTPIPQQSESTCYEVALLRYGIESWNSISQCSQTLSYDLTAVTLDLYHSNGYRARVRAVDGSRHSQWTVTNTRFSVDEVTLTVGSVNLEIHNGFILGKIQLPRPKMAPAQDTYESIFSHFREYEIAIRKVPGQFTFTHKKVKHEQFSLLTSGEVGEFCVQVKPSVASRSNKGMWSKEECISLTRQYFTVTN” the “soluble on expression in E. coli” value was “soluble”.
For “MDIILGIRVQDSVILASSKAVTRGISVLKDSDDKTRQLSPHTLMSFAGEAGDTVQFAEYIQANIQLYSIREDYELSPQAVSSFVRQELAKSIRSRRPYQVNVLIGGYDKKKNKPELYQIDYLGTKVELPYGAHGYSGFYTFSLLDHHYRPDMTTEEGLDLLKLCVQELEKRMPMDFKGVIVKIVDKDGIRQVDDFQAQ”, the “soluble on expression in E. coli” value was “soluble”.
